Measurements taken from patent publication US9512236B2, “Amino acid sequences directed against GPCRS and polypeptides comprising the same for the treatment of GPCR-related diseases and disorders” (Ablynx N.V., priority 2006, dated 2016).
Where a chain is given by its changes, count along the chain named. Values belong to the molecule of their own block, whether it stands above or below them.

What was measured:
hCXCR4/Gαqi5 = target: T1, hCXCR4/Gαqi5 (Homo sapiens, UniProt P61073); assay: CXCL12-induced inositol phosphate accumulation in HEK293T cells co-transfected with CXCR4 and Gαqi5; assay type: cell-based; conditions: 30 nM CXCL12
T1 construct: expressed in transfected cells; host or cells: HEK293T
T1 sequence (P61073 whole entry): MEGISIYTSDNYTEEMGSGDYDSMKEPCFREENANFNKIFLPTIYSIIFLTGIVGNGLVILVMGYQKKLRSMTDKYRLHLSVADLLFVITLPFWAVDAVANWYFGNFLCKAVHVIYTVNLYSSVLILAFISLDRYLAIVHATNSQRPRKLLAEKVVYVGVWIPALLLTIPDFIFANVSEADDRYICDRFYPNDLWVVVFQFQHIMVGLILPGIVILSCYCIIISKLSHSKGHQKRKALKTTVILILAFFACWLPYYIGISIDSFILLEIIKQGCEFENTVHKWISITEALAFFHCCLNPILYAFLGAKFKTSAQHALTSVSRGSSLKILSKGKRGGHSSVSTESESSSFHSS
Text: In an effort to functionally characterize the Nanobodies 238D2 and 238D4, the inventors measured their ability to activate G-protein signaling or to inhibit the CXCL12-induced G-protein signaling in HEK293T cells transiently co-transfected with cDNAs encoding CXCR4 and Gαqi5. This assay is based upon the use of the chimeric Gαqi5-protein that contains of a Gαq backbone with the 5 C-terminal amino acids replaced by those from Gαi. The chimeric G-protein is activated by CXCR4 like a Gαi subunit but transduces signals like Gαq proteins (Coward, P., et al., Chimeric G Proteins Allow a High-Throughput Signaling Assay of […] Receptors, Analytical Biochemistry (1999) 270: 242-248). Thus, the activation of Gαqi5 can be quantified by the measurement of accumulated inositol phosphates.
Methods: On day 1, HEK293T cells were plated out at a density of 2 million cells/dish. On day 2, these cells were transfected with 2.5 μg CXCR4 DNA and 2.5 μg Gαqi5, using the PEI method. Cells were plated out the next day in poly-L-lysine coated 24 well plates (500 μl/well) and labeled after 4-6 hours with 2 μCi/ml 3H-inositol in inositol-free medium. […] After this final incubation, the reaction was stopped by aspiration of stimulation medium and addition of 10 mM formic acid (FIG. 4).

CXCR7 = CXCR7 (Homo sapiens, UniProt P25106); assay: Competition with Alexa647-labelled 14G03 in FACS analysis; assay type: binding; conditions: Alexa647-labelled 14G03, FACS
Sequence of CXCR7 (P25106 whole entry): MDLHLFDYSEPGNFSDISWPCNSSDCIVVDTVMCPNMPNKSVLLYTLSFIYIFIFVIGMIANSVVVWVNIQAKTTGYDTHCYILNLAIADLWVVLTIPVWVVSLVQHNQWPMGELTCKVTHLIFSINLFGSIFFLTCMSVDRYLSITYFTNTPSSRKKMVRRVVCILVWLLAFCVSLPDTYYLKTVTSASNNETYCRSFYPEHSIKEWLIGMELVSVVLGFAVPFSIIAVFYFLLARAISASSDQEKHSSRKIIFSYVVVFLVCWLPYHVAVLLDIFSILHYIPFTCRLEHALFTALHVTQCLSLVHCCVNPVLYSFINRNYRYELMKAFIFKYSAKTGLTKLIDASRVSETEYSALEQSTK
Text: Nanobodies 08A05, 08A10, 07C03, 01C10 and 14G03, Mab 8F11 (Biolegend), Mab 11G8 (R&D) and Mab 9C4 (MBL) were further tested for competition with Alexa647-labelled 14G03 in FACS analysis.

CXCR7 point mutants [1] = target: CXCR7 point mutants (Homo sapiens, UniProt P25106, M33Q); assay: Binding to a set of 10 point mutants of CXCR7; conditions: M33Q point mutant
Sequence of CXCR7 point mutants (Homo sapiens, UniProt P25106, M33Q) (P25106 whole entry M33Q): as the sequence (P25106 whole entry) above, with M33Q counted along it
Protocol: (§1) In a third approach, Nanobodies were tested for their binding to a set of 10 point mutants of CXCR7 (S9A, F14Y, 117L, S18N, W19A, S23G, D25A, V32A, M33Q, N36T), which yielded information on the individual NANOBODY® (VHH) epitopes.

CXCR7 point mutants [2] = target: CXCR7 point mutants (Homo sapiens, UniProt P25106, W19A); assay: Binding to a set of 10 point mutants of CXCR7; conditions: W19A point mutant
Sequence of CXCR7 point mutants (Homo sapiens, UniProt P25106, W19A) (P25106 whole entry W19A): as the sequence (P25106 whole entry) above, with W19A counted along it
Protocol: as §1

PTHR = target: T2, PTHR (Homo sapiens, UniProt Q03431); assay: Binding of clones measured on Biacore (Table B-3)
T2 sequence (Q03431 27-593): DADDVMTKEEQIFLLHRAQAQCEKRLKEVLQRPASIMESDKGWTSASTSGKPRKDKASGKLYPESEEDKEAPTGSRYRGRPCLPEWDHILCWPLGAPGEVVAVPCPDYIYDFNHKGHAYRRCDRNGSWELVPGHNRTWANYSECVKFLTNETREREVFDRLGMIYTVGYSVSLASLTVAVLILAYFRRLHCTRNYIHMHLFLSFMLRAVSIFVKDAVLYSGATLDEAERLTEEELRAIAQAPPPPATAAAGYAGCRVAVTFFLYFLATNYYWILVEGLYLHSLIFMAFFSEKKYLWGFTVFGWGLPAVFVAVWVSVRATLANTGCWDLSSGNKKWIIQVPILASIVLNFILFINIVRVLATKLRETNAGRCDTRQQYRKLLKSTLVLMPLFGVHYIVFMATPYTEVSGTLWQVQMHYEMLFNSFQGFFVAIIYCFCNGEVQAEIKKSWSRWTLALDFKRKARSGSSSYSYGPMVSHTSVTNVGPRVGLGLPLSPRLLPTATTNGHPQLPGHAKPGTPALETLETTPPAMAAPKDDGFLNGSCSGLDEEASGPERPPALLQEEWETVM
Protocol: (§2) Binding of 4 clones directed against CB1R and of 4 clones against PTHR was measured on Biacore.

CB1R = assay: Binding of clones measured on Biacore (Table B-2); conditions: read-out: Binding of clones against CB1R
Protocol: as §2

CXCR4 = target: T3, CXCR4 (Homo sapiens, UniProt P61073); assay: [125I]-CXCL12 competition binding on membranes from HEK293T cells transiently expressing CXCR4 (Table I)
T3 construct: expressed in transfected cells; host or cells: HEK293T (membranes)
T3 sequence (P61073 whole entry): as the sequence (P61073 whole entry) above
Text: Another example of a therapeutic relevant GPCR is CXCR4, which was previously identified as such in Table C and Table D of US20100062004. This representative GPCR has now been further investigated by the present inventors. Different pools of highly similar clones able to inhibit specific [^125I]-CXCL12 binding were identified in a CXCR4 competition binding assay. Nanobodies representing these different pools were purified and further pharmacologically analyzed as detailed in the Example section of WO09/138519. In particular two representative monovalent Nanobodies 238D2 and 238D4 and different mono- and heterobivalent constructs thereof have been analyzed in depth:
Additionally, the inventors engineered a series of mono-specific bivalent and biparatopic CXCR4 constructs. […] Overall, short peptide linkers were used favoring binding to CXCR4 monomers.
In membrane binding experiments mAb 12G5, which is a known neutralizing CXCR4 antibody, seems only to displace 50% of radiolabeled 125I-CXCL12 (CXCR4 ligand).

B1: 08A10: Nanobody against human CXCR7, Group 2 (protein)
VHH: EVQLVESGGGLVQAGGSLRLSCAASGSIFSIAAMGWYRQATGKQRELVATITDGGTTTYADSVKGRVTISRDRSANTVYLAMNNLKPDDTAVYYCYAYLRYTSRVPGDNYWGQGTQVTVSS
modifications: Nanobody, Nanobody constructs or fragments thereof
competition with 14G03 binding to CXCR7 (CXCR7): compete | epitope includes residue M33 (CXCR7 point mutants [1]): included residue M33 | effect of W19A mutation on binding (CXCR7 point mutants [2]): did not affect

B3: 08A05: Nanobody against human CXCR7, Group 2 (protein)
VHH: EVQLVESGGGLVQAGDSLRLSCAASGLTFSNYDMGWFRQAPGKEREFVGASWWSGGAPYYSDSVKGRFTISRDNAKNTVYLQANSLRPEDTAVYYCAAKRLRSFASGGSYDYWGQGTQVTVSS
modifications: Nanobody, Nanobody constructs or fragments thereof
competition with 14G03 binding to CXCR7 (CXCR7): compete | epitope includes residue M33 (CXCR7 point mutants [1]): included residue M33 | effect of W19A mutation on binding (CXCR7 point mutants [2]): did not affect

B8: 14G03: Nanobody against human CXCR7, Group 2 (protein)
VHH: EVQLVESGGGLVQPGGSLRISCAASGSIYLINYMGWYRQAPGKQRELVATLTSGGSTNYAGSVKGRFAISRDNAKNTVYLQMNSLKPEDTAVYYCNIGGTLYDRRRFESWGQGTQVTVSS
modifications: Nanobody, Nanobody constructs or fragments thereof
epitope includes residue M33 (CXCR7 point mutants [1]): included residue M33 | effect of W19A mutation on binding (CXCR7 point mutants [2]): did not affect

B9: L13 (protein)
chain: EVQLMESGGGLVQAGGSLRLSCAASGRTFNNYAMGWFRRAPGKEREFVAAITRSGVRSGVSAIYGDSVKDRFTISRDNAKNTLYLQMNSLKPEDTAVYTCAASAIGSGALRRFEYDYSGQGTQVTVSSGGGGSGGGGSGGGGSGGGGSEVQLMESGGGLVQAGGSLRLSCAASGRTFNNYAMGWFRRAPGKEREFVAAITRSGVRSGVSAIYGDSVKDRFTISRDNAKNTLYLQMNSLKPEDTAVYTCAASAIGSGALRRFEYDYSGQGTQVTVSS
Displacem. (%) (maximal displacement of [125I]-CXCL12) (CXCR4; membranes from HEK293T cells transiently expressing CXCR4, means ± S.E.M.): 96 ± 5%

B11: 01C10: Nanobody against human CXCR7, Group 1 (protein)
VHH: EVQLVESGGGLVQTGASLRLSCAASGRTFSNYAMGWFRQAPGKERERVAAITPRAFTTYYADSVKGRFTISRDNAKNTAYLQMVSLKPEDTAVYYCAAQLVGSGSNLGRQESYAYWGQGTQVTVSS
modifications: Nanobody, Nanobody constructs or fragments thereof
competition with 14G03 binding to CXCR7 (CXCR7): does not | effect of W19A mutation on binding (CXCR7 point mutants [2]): affected

B12: 238D2-20GS-238D4: biparatopic CXCR4 Nanobody, 238D2 linked to 238D4 via 20 amino acid GGGGS-repeat linker (protein)
chain: EVQLVESGGGLVQTGGSLRLSCAASGFTFSSYAMSWVRQAPGKGLEWVSGIKSSGDSTRYAGSVKGRFTISRDNAKNMLYLQMYSLKPEDTAVYYCAKSRVSRTGLYTYDNRGQGTQVTVSSGGGGSGGGGSGGGGSGGGGSEVQLMESGGGLVQAGGSLRLSCAASGRTFNNYAMGWFRRAPGKEREFVAAITRSGVRSGVSAIYGDSVKDRFTISRDNAKNTLYLQMNSLKPEDTAVYTCAASAIGSGALRRFEYDYSGQGTQVTVSS
Ki (CXCR4; [125I]-CXCL12 displacement, membranes from HEK293T cells transiently expressing CXCR4, read-out: Ki (nM) (receptor affinity)): 0.36 nM | Rel. potency (potency relative to those of monovalent 238D2) (CXCR4; footnote a: relative to monovalent 238D2): 27 | Rel. potency (potency relative to those of monovalent 238D4) (CXCR4; footnote b: relative to monovalent 238D4): 17 | increase in affinity to CXCR4 over monovalent counterpart 238D2 (CXCR4; relative to monovalent 238D2): 27 fold | increase in affinity to CXCR4 over monovalent counterpart 238D4 (CXCR4; relative to monovalent 238D4): 17 fold | inhibitory potency on CXCL12-induced inositol phosphate accumulation (hCXCR4/Gαqi5; compared to monovalent counterparts and 12G5, FIG. 4): significantly increased inhibitory potency

Further lines, results first:

concentration needed to inhibit CXCR4 function (hCXCR4/Gαqi5): 1 µM
Molecule: c1cc(CN2CCCNCCNCCCNCC2)ccc1CN1CCCNCCNCCCNCC1 [AMD3100, plerixafor, reference compound]

Kd (PTHR; PTHR − CaCl2): 22 nM
B2: vHH23A3 (protein)
VHH: EVQLVESGGGLVQAGGSLRLSCAASGLTFSNYAMGWFRQAPGKEREWVASINWSGGSTYYEDSVEGRFTISRDNAKNTVNLQMNSLKPEDTAVYYCAAKRGHYSREYDYWGQGTQVTVSS

Kd (CB1R): 36 nM
B4: vHH6H4 (protein)
VHH: EVQLVESGGGLVQAGGSLRLACAASGSIFSFNAMGWYRQAPGKQRELLAVITRDGITKYADSVKGRFTISRDNAKNTMYLQMNSLKPEDTAVYYCHTGLPTGRGSHSDYWGQGTQVTVSS

Kd (PTHR; PTHR + CaCl2): 9 nM | Kd (PTHR; PTHR − CaCl2): 17 nM
B5: vHH22A3 (protein)
VHH: EVQLVESGGGLVQAGGSLRLSCAASGNIFANNIMGWYRQPPGKEREFVAHVSHDGDSMYAVSVKGRFAISRKDATNLYLQMNSLKPEDTAIYFCRLLNIPTQGRMEGFWGQGTQVTVSS

Kd (CB1R): 12 nM
B6: vHH6B7 (protein)
VHH: EVQLVESGGGLVQAGGSLRLSCAASGRTLRNYDMGWFRQAPGKEREFVATIRWSTSETYYADSVKGRFTISSDNAKNTVDLQMNSLTPGDTGVYYCAARSVYSYDYNYWGQGTQVTVSS

Kd (CB1R): 12 nM
B7: vHH5G11 (protein)
VHH: B6 VHH with E6K, R30S, S56G, A61T, S72K, A75T, G89E, G92A, A98S, D105E

Kd (PTHR; PTHR − CaCl2): 17 nM
B10: vHH26A6 (protein)
VHH: EVQLVESGGGLVQAGGSLRLSCAASRSRSSFDDMGWYRQAPGKQREFVGGITLGGSTIYADSVKGRFTISMDSARNTGYLQMNSLKPEDTAVYYCNAALDGYSGSSWGQGTQVTVSS

Kd (PTHR; PTHR + CaCl2): 70 nM | Kd (PTHR; PTHR Fos12): 360 nM
B13: vHH26F2 (protein)
VHH: EVQLVESGGGLVQAGGSLRLSCVASGFSFDDYAIGWFRQAPGQDREPLACITSGGTRNYNPSVMARFRIDRDNSVKTVYLQINTLKPEDTAVYYCSTELDRQGGSAHECREYDTWGQGTQVTVSS
